Literature values as cited in PMC5331467.

Biological target: Tyr7 (UniProt position 7, SHHWGYGKHNG)
Assay: NMR (jointly with neutron crystallography)

In the case of “Carbonic anhydrase II (CA-II) (Homo sapiens)”, the pKa is given as 7.1.
